In US20240043515A1 (Chugai, published 2024):

T1: hFcγRIIaH on Jurkat effector cells (human, UniProt P12318 34-317)
T1 sequence (looked up): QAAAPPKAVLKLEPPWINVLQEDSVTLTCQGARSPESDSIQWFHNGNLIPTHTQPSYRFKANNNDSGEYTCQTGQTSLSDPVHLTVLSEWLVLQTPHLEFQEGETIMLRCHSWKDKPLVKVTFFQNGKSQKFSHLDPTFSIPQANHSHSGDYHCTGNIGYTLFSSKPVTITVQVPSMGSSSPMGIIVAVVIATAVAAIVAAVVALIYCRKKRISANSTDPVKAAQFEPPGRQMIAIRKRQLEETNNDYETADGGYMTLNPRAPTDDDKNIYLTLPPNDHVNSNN

T2: human FcγRIIa R extracellular domain (human, UniProt P12318 34-217)
T2 construct: extracellular domain; also called hFcγR IIa R; FcγRIIa allotype R131
T2 sequence (looked up): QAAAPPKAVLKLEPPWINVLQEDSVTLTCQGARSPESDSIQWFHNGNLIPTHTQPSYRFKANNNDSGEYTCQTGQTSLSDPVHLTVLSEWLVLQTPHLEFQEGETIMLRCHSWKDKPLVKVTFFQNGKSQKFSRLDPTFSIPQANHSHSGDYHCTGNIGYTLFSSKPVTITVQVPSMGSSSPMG

T3: human FcγRIIa H extracellular domain (human, UniProt P12318 34-217)
T3 construct: extracellular domain; also called hFcγR IIa H; FcγRIIa allotype H131
T3 sequence (looked up): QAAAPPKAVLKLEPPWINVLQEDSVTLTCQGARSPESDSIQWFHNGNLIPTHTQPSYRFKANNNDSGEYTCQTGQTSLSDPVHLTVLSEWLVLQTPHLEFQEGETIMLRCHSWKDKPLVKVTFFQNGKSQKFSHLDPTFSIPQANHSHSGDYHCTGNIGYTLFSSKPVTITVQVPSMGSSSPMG

T4: human FcγRIIb extracellular domain (human, UniProt P31994 43-217)
T4 construct: extracellular domain; also called hFcγR IIb
T4 sequence (looked up): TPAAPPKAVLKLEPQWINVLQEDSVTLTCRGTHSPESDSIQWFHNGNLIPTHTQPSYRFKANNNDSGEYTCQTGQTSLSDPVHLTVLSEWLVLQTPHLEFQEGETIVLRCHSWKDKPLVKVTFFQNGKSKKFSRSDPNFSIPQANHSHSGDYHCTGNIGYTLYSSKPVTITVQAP


Key:
[1] = target: hFcγRIIIaV on Jurkat effector cells (human, UniProt P08637 17-254); experiment: cell-based or functional assay
[2] = target: T1, hFcγRIIaH on Jurkat effector cells; experiment: cell-based or functional assay
[3] = target: T2, human FcγRIIa R extracellular domain; experiment: SPR; KD of G1d divided by KD of this antibody
Description: (§1) The extracellular domains of FcγRs were produced by the method described in WO2014104165. The interaction between the produced antibodies and human FcγRs was analyzed using Biacore 8K+ by the method below. For the running buffer, 50 mM Na-Phosphate, 150 mM NaCl, and 0.05% Tween20 (pH 7.4) was used, and measurement was performed at 25° C. The sensor chip used was a Series S SA chip (GE Healthcare) onto which CaptureSelect Human Fab-kappa Kinetics Biotin Conjugate (Thermo Fisher Scientific) was immobilized. An antibody of interest was captured onto this chip, and each FcγR diluted with the running buffer was allowed to interact with it. The chip was regenerated using 10 mM Glycine-HCl (pH 1.5), and repeatedly used to capture antibodies and perform measurement. The dissociation constants KD (mol/L) of each antibody for FcγRs were calculated using Biacore Insight Evaluation Software, with a steady state affinity model for the dissociation constant for FcγRIIb and a 1:1 Langmuir binding model for the dissociation constants for the other FcγRs (Table 2).

[4] = target: T5, human FcγRIa extracellular domain (human, UniProt P12314 16-292); experiment: SPR; KD of G1d divided by KD of this antibody
T5 construct: extracellular domain; also called hFcγR Ia
Description: as §1

[5] = target: T6, human FcγRIIIa F extracellular domain (human, UniProt P08637 17-208); experiment: SPR; KD of G1d divided by KD of this antibody
T6 construct: extracellular domain; also called hFcγR IIIa F; FcγRIIIa allotype F158
Description: as §1

[6] = target: T3, human FcγRIIa H extracellular domain; experiment: SPR; KD of G1d divided by KD of this antibody
Description: as §1

[7] = target: T4, human FcγRIIb extracellular domain; experiment: SPR; KD of G1d divided by KD of this antibody
Description: as §1

[8] = target: T7, human FcγRIIIa V extracellular domain (human, UniProt P08637 17-208); experiment: SPR; KD of G1d divided by KD of this antibody
T7 construct: extracellular domain; also called hFcγR IIIa V; FcγRIIIa allotype V158
Description: as §1

[9] = target: T2, human FcγRIIa R extracellular domain; experiment: SPR; KD for hFcγRIIb divided by KD for this FcγR
Description: as §1

[10] = target: T6, human FcγRIIIa F extracellular domain; experiment: SPR; KD for hFcγRIIb divided by KD for this FcγR
Description: as §1

[11] = target: T3, human FcγRIIa H extracellular domain; experiment: SPR; KD for hFcγRIIb divided by KD for this FcγR
Description: as §1

[12] = target: T7, human FcγRIIIa V extracellular domain; experiment: SPR; KD for hFcγRIIb divided by KD for this FcγR
Description: as §1

T7 sequence (P08637 17-208 F176V): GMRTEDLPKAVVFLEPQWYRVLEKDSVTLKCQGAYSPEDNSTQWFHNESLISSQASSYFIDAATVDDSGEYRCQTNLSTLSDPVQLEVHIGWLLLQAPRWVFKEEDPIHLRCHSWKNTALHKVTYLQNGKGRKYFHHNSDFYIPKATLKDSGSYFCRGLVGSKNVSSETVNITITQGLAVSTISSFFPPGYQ
T6 sequence (P08637 17-208): as the sequence (P08637 17-208 F176V) above, with V160F counted along it
T5 sequence (P12314 16-292): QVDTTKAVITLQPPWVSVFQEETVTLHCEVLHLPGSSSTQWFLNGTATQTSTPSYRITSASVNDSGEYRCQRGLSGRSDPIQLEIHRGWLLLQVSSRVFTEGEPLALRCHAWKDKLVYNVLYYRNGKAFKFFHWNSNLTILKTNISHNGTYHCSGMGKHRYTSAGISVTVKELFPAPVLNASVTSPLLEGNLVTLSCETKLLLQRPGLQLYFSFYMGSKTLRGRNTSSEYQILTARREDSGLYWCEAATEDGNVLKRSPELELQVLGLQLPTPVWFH
Sequence of hFcγRIIIaV on Jurkat effector cells (P08637 17-254, form in doubt): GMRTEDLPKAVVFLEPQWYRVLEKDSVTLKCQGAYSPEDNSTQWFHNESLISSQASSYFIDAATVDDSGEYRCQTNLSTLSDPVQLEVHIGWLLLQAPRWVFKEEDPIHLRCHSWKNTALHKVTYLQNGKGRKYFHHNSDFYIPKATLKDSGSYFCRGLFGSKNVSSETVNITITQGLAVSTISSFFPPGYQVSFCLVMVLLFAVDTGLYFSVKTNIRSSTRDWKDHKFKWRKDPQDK

EC50 of reporter gene induction (ADCC Reporter Bioassay, Hepa1-6/hEREG target cells) [1] | EC50 of reporter gene induction (ADCP Reporter Bioassay, Hepa1-6/hEREG target cells) [2] | Relative value to KD between G1d and hFcgRs [3] | Relative value to KD between G1d and hFcgRs [4] | Relative value to KD between G1d and hFcgRs [5] | Relative value to KD between G1d and hFcgRs [6] | Relative value to KD between G1d and hFcgRs [7] | Relative value to KD between G1d and hFcgRs [8] | A/I ratio (KD for FcγRIIb divided by KD for each FcγR) [9] | A/I ratio (KD for FcγRIIb divided by KD for each FcγR) [10] | A/I ratio (KD for FcγRIIb divided by KD for each FcγR) [11] | A/I ratio (KD for FcγRIIb divided by KD for each FcγR) [12] | Binder
0.789 ng/mL | 0.0432 µg/mL | 3.2 times | 2.9 times | 2520 times | 6.3 times | 0.9 times | 462 times | 22.5 ratio | 9940 ratio | 65.2 ratio | 15000 ratio | EGL-ART4 (H240-Kn456/L73-k0//H240-H1446/L73-k0) (antibody, human IgG1, kappa, Kn456: L234F/L235Q/G236W/S239M/T250V/H268D/D270E/S298A/T307P/A330M/I332E + Y349C/T366W; H1446: G236A/T250V/D270E/S298A/T307P/K326D/A330M/I332E/K334E + D356C/T366S/L368A/Y407V) heavy 1: QDQLVQSGAEVKKPGASVKVSCKASGFNIKDTYIQWVRQAPGQGLEWMGRIDPLRKQTKYREKFEGRVTITADTSTNTAYMELSSLRSEDTAVYYCVRSGREFDYWGQGTLVTVSSASTKGPSVFPLAPSSKSTSGGTAALGCLVKDYFPEPVTVSWNSGALTSGVHTFPAVLQSSGLYSLSSVVTVPSSSLGTQTYICNVNHKPSNTKVDKKVEPKSCDKTHTCPPCPAPEFQWGPMVFLFPPKPKDVLMISRTPEVTCVVVDVSDEEPEVKFNWYVDGVEVHNAKTKPREEQYNATYRVVSVLPVLHQDWLNGKEYKCKVSNKALPMPEEKTISKAKGQPREPQVCTLPPSRDELTKNQVSLWCLVKGFYPSDIAVEWESNGQPENNYKTTPPVLDSDGSFFLYSKLTVDKSRWQQGNVFSCSVMHEALHNHYTQKSLSLSP heavy 2: QDQLVQSGAEVKKPGASVKVSCKASGFNIKDTYIQWVRQAPGQGLEWMGRIDPLRKQTKYREKFEGRVTITADTSTNTAYMELSSLRSEDTAVYYCVRSGREFDYWGQGTLVTVSSASTKGPSVFPLAPSSKSTSGGTAALGCLVKDYFPEPVTVSWNSGALTSGVHTFPAVLQSSGLYSLSSVVTVPSSSLGTQTYICNVNHKPSNTKVDKKVEPKSCDKTHTCPPCPAPELLAGPSVFLFPPKPKDVLMISRTPEVTCVVVDVSHEEPEVKFNWYVDGVEVHNAKTKPREEQYNATYRVVSVLPVLHQDWLNGKEYKCKVSNDALPMPEEETISKAKGQPREPQVYTLPPSRCELTKNQVSLSCAVKGFYPSDIAVEWESNGQPENNYKTTPPVLDSDGSFFLVSKLTVDKSRWQQGNVFSCSVMHEALHNHYTQKSLSLSP light: DIQMTQSPSSLSASVGDRVTITCRASQDIHKYIAWYQQKPGQAPRLLIQYTSTLQPGVPSRFSGSGSGTDYTFTISSLQPEDIATYYCLQYEQLRTFGGGTKVEIKRTVAAPSVFIFPPSDEQLKSGTASVVCLLNNFYPREAKVQWKVDNALQSGNSQESVTEQDSKDSTYSLSSTLTLSKADYEKHKVYACEVTHQGLSSPVTKSFNRGEC
1.67 ng/mL | 0.0245 µg/mL | 10.4 times | 0.5 times | 148 times | 33.9 times | 1.3 times | 92.9 times | 49.9 ratio | 399 ratio | 240 ratio | 2060 ratio | EGL-ART5 (H240-Kn462/L73-k0//H240-H1441/L73-k0) (antibody, human IgG1, kappa, Kn462: L234F/L235Q/G236W/S239M/T250V/H268D/D270E/S298A/T307P/K326D + Y349C/T366W; H1441: G236A/T250V/D270E/S298A/T307P/K326D/K334E + D356C/T366S/L368A/Y407V) heavy 1: QDQLVQSGAEVKKPGASVKVSCKASGFNIKDTYIQWVRQAPGQGLEWMGRIDPLRKQTKYREKFEGRVTITADTSTNTAYMELSSLRSEDTAVYYCVRSGREFDYWGQGTLVTVSSASTKGPSVFPLAPSSKSTSGGTAALGCLVKDYFPEPVTVSWNSGALTSGVHTFPAVLQSSGLYSLSSVVTVPSSSLGTQTYICNVNHKPSNTKVDKKVEPKSCDKTHTCPPCPAPEFQWGPMVFLFPPKPKDVLMISRTPEVTCVVVDVSDEEPEVKFNWYVDGVEVHNAKTKPREEQYNATYRVVSVLPVLHQDWLNGKEYKCKVSNDALPAPIEKTISKAKGQPREPQVCTLPPSRDELTKNQVSLWCLVKGFYPSDIAVEWESNGQPENNYKTTPPVLDSDGSFFLYSKLTVDKSRWQQGNVFSCSVMHEALHNHYTQKSLSLSP heavy 2: QDQLVQSGAEVKKPGASVKVSCKASGFNIKDTYIQWVRQAPGQGLEWMGRIDPLRKQTKYREKFEGRVTITADTSTNTAYMELSSLRSEDTAVYYCVRSGREFDYWGQGTLVTVSSASTKGPSVFPLAPSSKSTSGGTAALGCLVKDYFPEPVTVSWNSGALTSGVHTFPAVLQSSGLYSLSSVVTVPSSSLGTQTYICNVNHKPSNTKVDKKVEPKSCDKTHTCPPCPAPELLAGPSVFLFPPKPKDVLMISRTPEVTCVVVDVSHEEPEVKFNWYVDGVEVHNAKTKPREEQYNATYRVVSVLPVLHQDWLNGKEYKCKVSNDALPAPIEETISKAKGQPREPQVYTLPPSRCELTKNQVSLSCAVKGFYPSDIAVEWESNGQPENNYKTTPPVLDSDGSFFLVSKLTVDKSRWQQGNVFSCSVMHEALHNHYTQKSLSLSP light: DIQMTQSPSSLSASVGDRVTITCRASQDIHKYIAWYQQKPGQAPRLLIQYTSTLQPGVPSRFSGSGSGTDYTFTISSLQPEDIATYYCLQYEQLRTFGGGTKVEIKRTVAAPSVFIFPPSDEQLKSGTASVVCLLNNFYPREAKVQWKVDNALQSGNSQESVTEQDSKDSTYSLSSTLTLSKADYEKHKVYACEVTHQGLSSPVTKSFNRGEC
